Test results reported in article PMC3958441, “Isl1 and Pou4f2 Form a Complex to Regulate Target Genes in Developing Retinal Ganglion Cells” (PLoS ONE, 2014).

T1: Isl1D1 (mouse, UniProt P61372 1-181)
T1 sequence: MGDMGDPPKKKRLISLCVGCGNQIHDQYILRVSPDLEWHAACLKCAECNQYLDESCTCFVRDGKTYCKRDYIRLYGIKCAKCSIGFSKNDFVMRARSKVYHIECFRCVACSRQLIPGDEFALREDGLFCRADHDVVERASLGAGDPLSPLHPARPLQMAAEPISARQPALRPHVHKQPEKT

T2: Pou4f2D1 (mouse, UniProt Q63934 1-260)
T2 sequence: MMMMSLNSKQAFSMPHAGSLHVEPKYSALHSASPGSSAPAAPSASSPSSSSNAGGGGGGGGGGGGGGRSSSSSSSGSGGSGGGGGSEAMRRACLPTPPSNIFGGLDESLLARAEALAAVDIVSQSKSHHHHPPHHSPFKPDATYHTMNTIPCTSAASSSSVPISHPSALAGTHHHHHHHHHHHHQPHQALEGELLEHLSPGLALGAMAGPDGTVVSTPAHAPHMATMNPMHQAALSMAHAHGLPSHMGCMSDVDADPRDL

T3: Pou4f2D3 (mouse, UniProt Q63934 240-411)
T3 sequence: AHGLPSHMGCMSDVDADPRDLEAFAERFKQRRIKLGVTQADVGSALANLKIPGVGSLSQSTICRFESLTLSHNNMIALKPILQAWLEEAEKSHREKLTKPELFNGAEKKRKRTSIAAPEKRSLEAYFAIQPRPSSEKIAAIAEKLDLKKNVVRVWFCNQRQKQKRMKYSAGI

T4: Isl1D4 (mouse, UniProt P61372 146-349)
T4 sequence: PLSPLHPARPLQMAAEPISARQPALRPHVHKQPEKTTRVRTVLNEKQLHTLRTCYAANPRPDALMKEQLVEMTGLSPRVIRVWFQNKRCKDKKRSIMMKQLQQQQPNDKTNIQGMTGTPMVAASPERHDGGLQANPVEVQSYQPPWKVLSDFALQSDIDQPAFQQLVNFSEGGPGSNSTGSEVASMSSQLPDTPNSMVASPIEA

T5: Pou4f2D5 (mouse, UniProt Q63934 125-411)
T5 sequence: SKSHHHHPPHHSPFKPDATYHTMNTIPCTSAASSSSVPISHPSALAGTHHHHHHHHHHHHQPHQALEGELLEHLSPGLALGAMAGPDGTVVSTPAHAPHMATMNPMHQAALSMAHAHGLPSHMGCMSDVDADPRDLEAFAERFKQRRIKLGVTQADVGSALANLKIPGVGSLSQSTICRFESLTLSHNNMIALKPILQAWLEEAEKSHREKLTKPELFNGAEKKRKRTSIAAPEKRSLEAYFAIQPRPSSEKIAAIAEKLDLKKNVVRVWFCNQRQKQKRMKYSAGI

T6: Pou4f2 (Brn3b) (mouse, UniProt Q63934 1-411)
T6 sequence: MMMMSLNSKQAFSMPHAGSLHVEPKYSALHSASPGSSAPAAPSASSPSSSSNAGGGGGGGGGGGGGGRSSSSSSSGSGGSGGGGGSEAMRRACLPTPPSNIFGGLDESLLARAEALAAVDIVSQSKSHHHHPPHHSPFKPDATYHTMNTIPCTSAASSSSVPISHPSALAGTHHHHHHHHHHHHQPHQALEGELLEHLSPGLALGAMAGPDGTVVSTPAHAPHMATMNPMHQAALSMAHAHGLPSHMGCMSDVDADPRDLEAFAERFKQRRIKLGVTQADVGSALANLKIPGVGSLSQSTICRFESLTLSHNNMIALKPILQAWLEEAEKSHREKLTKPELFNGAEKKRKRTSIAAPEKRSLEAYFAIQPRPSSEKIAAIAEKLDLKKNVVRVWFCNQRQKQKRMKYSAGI

T7: Pou4f2D4 (mouse, UniProt Q63934 169-411)
T7 sequence: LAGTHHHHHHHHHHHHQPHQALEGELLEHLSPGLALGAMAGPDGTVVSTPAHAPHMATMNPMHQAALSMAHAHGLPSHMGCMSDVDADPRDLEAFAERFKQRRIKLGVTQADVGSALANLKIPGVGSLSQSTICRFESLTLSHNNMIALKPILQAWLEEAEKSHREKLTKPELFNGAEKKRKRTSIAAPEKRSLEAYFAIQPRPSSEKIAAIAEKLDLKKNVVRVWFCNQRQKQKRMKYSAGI

B1: CBRN3(W) (dsDNA)
DNA 1: GATCTCTCCTGCATAATTAATTACCCCCGGAT
DNA 2: GATCCGGGGGTAATTAATTATGCAGGAGAGAT
B2: SBRN3(W) (dsDNA)
DNA 1: GCACACGACCCAATGAATTAATAACCGGGCTG
DNA 2: GCAGCCCGGTTATTAATTCATTGGGTCGTGTG

How the values were obtained:
Assay in all cases: EMSA; EMSA: 20 mM Tris-HCl pH 7.5, 50 mM NaCl, 10 mM DTT, 1 mM EDTA, 5% glycerol, 200 ng dI/dC, 200 ng each protein in 20 ul, 4 C, 30 min; 8% PAGE, 1x TBE, 4 C
Isl1D1 = molecular target: T1, Isl1D1; conditions: protein: recombinant; tags: His (C-terminal); (radiolabel, Klenow fill-in); 5' overhang 1 nt at both ends before fill-in
Pou4f2D1 = molecular target: T2, Pou4f2D1; conditions: protein: recombinant; tags: His (C-terminal); (radiolabel, Klenow fill-in); 5' overhang 1 nt at both ends before fill-in
Pou4f2D3 = molecular target: T3, Pou4f2D3; conditions: protein: recombinant; tags: His (C-terminal); (radiolabel, Klenow fill-in); 5' overhang 1 nt at both ends before fill-in
Isl1D4 = molecular target: T4, Isl1D4; conditions: protein: recombinant; tags: His (C-terminal); (radiolabel, Klenow fill-in); 5' overhang 1 nt at both ends before fill-in
Pou4f2D5 = molecular target: T5, Pou4f2D5; conditions: protein: recombinant; tags: His (C-terminal); (radiolabel, Klenow fill-in); 5' overhang 1 nt at both ends before fill-in
Pou4f2 (Brn3b) = molecular target: T6, Pou4f2 (Brn3b); conditions: protein: recombinant; tags: His (C-terminal, pET-28a); (radiolabel, Klenow fill-in); 5' overhang 1 nt at both ends before fill-in
Pou4f2D4 = molecular target: T7, Pou4f2D4; conditions: protein: recombinant; tags: His (C-terminal); (radiolabel, Klenow fill-in); 5' overhang 1 nt at both ends before fill-in

Binder | binding result (Isl1D1) | binding result (Pou4f2D1) | binding result (Pou4f2D3) | binding result (Isl1D4) | binding result (Pou4f2D5) | binding result (Pou4f2 (Brn3b)) | binding result (Pou4f2D4)
B1 | no binding | no binding | binds | binds | binds | binds | binds
B2 | no binding | no binding | binds | binds | binds | binds | binds
